Laboratory results published in PMC3617921.

Biological target: MBP-Brh2 (U. maydis)
Test: pull-down

Substance: hexahistidine (His)-tagged Dss1 (natural protein)
- fold lower level of Dss1 in the DNA-bound fraction than with Brh2Δ362–493::OB-AB: > 20 fold
